Where a chain is given by its changes, count along the chain named. Values belong to the binder of their own block, whether it stands above or below them.
How the values were obtained:
human CD70 [1] = biological target: T1, human CD70 (human, UniProt P32970 1-193); experiment: IHC Leica BOND, ER2, FFPE HH cells, 5 µg/mL
T1 construct: Endogenous CD70 in FFPE cells and tissue sections, detected by IHC; also called CD70 antigen
T1 sequence: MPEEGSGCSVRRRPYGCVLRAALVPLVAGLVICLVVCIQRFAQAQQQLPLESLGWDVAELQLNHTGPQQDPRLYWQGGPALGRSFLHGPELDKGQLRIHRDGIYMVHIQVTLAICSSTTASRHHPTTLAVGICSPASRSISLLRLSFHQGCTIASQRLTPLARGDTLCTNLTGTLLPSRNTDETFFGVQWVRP
Method: (§1) The following IHC evaluation was performed using a Leica BOND™ RX autostainer and BOND™ Polymer Refine Detection kit. These antibodies were tested at 5 μg/mL or 8 μg/mL concentration on a panel of CD70 positive cell line controls and a renal clear cell carcinoma tissue microarray (RCC TMA). All incubation steps were performed at room temperature with wash cycles in between each step unless otherwise stated. Briefly, pretreatment of FFPE slides was performed using the Bake and Dewax function. It was followed by a HIER step with Epitope Retrieval solution 2 (ER2) for 20 minutes at 100° C. Next, tissues were incubated with primary antibody for 60 minutes, followed by incubation with post primary and then polymer reagents for 15 minutes each. The antibody-antigen binding was visualized by brown DAB Refine stain for 10 minutes and counter-stained blue with Hematoxylin for 5 minutes. […] Upon completion of IHC staining experiment, stained tissues were scan using a Pannoramic MIDI II brightfield whole slide scanner and staining was visualized using CaseViewer software.

human CD70 [2] = biological target: T1, human CD70; experiment: IHC Leica BOND, ER2, FFPE ACHN cells, 5 µg/mL
Method: as §1

human CD70 [3] = biological target: T1, human CD70; experiment: IHC Leica BOND, ER2, FFPE ACHN cells, 8 µg/mL
Method: as §1

B2: 18F8A8 (antibody, IgG1, V domains shown)
VH: QVTLKESGPGILQPSQTLSLTCSFSGFSLSTSNMGVAWIRQPLGKGLEWLLYILWNDTKYYNPALKSRLSISKDTYNNQVFLKIVNVDTADTATYYCARIRRDYALDYWGQGTSVTVSS
VL: DIVMSQSPSSLAVSVGEKVTMNCKSSQSLLYSNNQKNYLAWYQQKPGQSPKLLIYWASTRESGVPDRFTGSGSGTDFTLTISSVKAEDLAVYYCQQYYIYPLAFGGGTKLEIK
notes: Mouse hybridoma antibody, IgG1, Kappa; Only variable domains are printed
binding result (human CD70 [2]): binds

B4: 4E6G9 (antibody, V domains shown)
VH: QIQLVQSGPELKKAGETVKISCKASGYTFAAYSMHWVKQAPGKGLKWMGWINTETGEPTYADDFKGRFAFSLETSASTAYLQINNLKNEDTATYFCTRDDYDGGRFSYWYFAVWGAGTTVTVSS
VL: DIQMTQSPSSLSASLGGKVTITCKASQDINKYIAWYQHRPGKGPRLLIRYTSTLQPGIPSRFSGSGSGRDYSFSINNLEPEDIATYYCLQYDNLLTFGGGTKLEIK
notes: Mouse IgG1, Kappa; Only variable domains are printed; also called 4E6G9 antibody (Ms IgG1, kappa); recombinant antibody 4E6G9
binding result (human CD70 [2]): binds

B5: 11G12B6 (antibody, V domains shown)
VH: QVTLKESGPGILKPSQTLSLTCSFSGFSLSTSGLAVGWIRQPSGKGLEWLSHIWWNDDKYYNPSLKNQLTISKDTSRNQVFLKIISVDTADTATYYCSAYFGGKNYWGQGTALTVSS
VL: DIVMTQSPSSLTVTAGEKVTMSCKSSQSLLNSGNQKNYLTWYQQKPGQPPKLLVYWASTRESGVPDRFTGSGSGTDFTLTISTVQAEDLAVYYCQNDYSYPLTFGAGTKLELK
notes: as for B2
binding result (human CD70 [3]): binds

Further lines, results first:

binding result (human CD70 [1]): binds
B1: 3H11D12E7 (antibody, V domains shown)
VH: QIQLVQSGPELKKPGETVKISCKASGYTFTDYSMHWVKQAPGKGLKWMGWINTETGEPTYADDFKGRFAFSLETSASTAYLQINNLKNDDTATYFCARSFYRYDWYFDVWGAGTTVTVSS
VL: QIVLTQSPAIMSASPGEKVTITCSASSSVSFMHWFQQKPGTSPKLWIYSTSNLASGVPARFSGSGSGTSYSLTISRMEAEDAATYYCQQRTSFPPTFGGGTNLEIK
notes: Mouse IgG1, Kappa; Only variable domains are printed; also called recombinantly expressed 3H11D12E7

binding result (human CD70 [2]): binds
B3: 19H7E4 (antibody, IgG1, V domains shown)
VH: QVTLKESGPGILQPSQTLSLTCSFSGFSLSTSNVGVGWIRQPSGKGLEWLLHILWNDGKYYNPALKSRLTISKDTSTNQVFLKIADVDTADSATYYCARLRRDYGMDYWGQGTSVTVSS
VL: B2 VL with N22S, N33Y, I99T, L102Y
notes: as for B2

binding result (human CD70 [2]): binds
B6: 16D7C8 (antibody, IgG3, V domains shown)
VH: QVQLQQSGPELVKPGASVRISCKASGYTFTSFYIHWVKQRPGQGLEWIGWISPINININYNEKFKGKATLTADKSSSTVYMQLSSLTSEDSAVYFCEGTSENFDVWGAGTTVTVSS
VL: DVLMTQIPLSLPVSLGDQASISCRSTQNIVHSNGNTYLEWYLQKPGQSPKLLIYKVSNRFSGVPDRFRGSGSGTEFTLKITRVEADDLGVYYCFQGSHVPFTFGAGTKLELK
notes: Mouse hybridoma antibody, IgG3, Kappa; Only variable domains are printed

Source: US20210380707A1 (published 2021)
